This is an account of results in patent US20060223099A1 (BAYLOR COLLEGE OF MEDICINE, published 2006).

The assay has as its target T1, SV40 large T-antigen (SV40, UniProt P03070 87-708).
T1 construct: Control partner in the yeast-two-hybrid assay; fusion construct not described
The assay can be described thus: targeted yeast-two-hybrid, negative control.

T1 sequence (P03070 87-708 limits assumed): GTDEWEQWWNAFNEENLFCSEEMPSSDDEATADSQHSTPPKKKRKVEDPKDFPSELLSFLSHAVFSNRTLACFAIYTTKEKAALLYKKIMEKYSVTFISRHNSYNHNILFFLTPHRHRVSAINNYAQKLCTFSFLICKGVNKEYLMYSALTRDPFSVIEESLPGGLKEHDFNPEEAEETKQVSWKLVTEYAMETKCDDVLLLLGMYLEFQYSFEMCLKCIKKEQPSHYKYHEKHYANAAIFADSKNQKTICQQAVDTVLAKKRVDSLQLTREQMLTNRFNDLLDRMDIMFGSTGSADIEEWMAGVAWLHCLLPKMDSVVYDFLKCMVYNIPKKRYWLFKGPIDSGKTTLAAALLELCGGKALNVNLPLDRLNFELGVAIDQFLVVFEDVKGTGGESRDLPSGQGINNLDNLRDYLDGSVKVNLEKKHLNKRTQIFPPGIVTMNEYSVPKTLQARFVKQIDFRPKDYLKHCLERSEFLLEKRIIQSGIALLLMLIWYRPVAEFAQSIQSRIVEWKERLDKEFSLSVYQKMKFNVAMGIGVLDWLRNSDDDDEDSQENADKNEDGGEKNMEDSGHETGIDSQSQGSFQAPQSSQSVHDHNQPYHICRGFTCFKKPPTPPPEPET

B1: human Lamin C (other)
chain: SEEVVSREVSGIKAAYEAELGDARKTLDSVAKERARLQLELSKVREEFKELKARNTKKEGDLIAAQARLKDLEALLNSKEAALSTALSEKRTLEGELHDLRGQVAKLEAALGEAKKQLQDEMLRRVDAENRLQTMKEELDFQKNIYSEELRETKRRHETRLVEID
notes: Negative-control partner in the yeast-two-hybrid assay; fusion construct not described
For the molecule B1, the binding result is “no binding”.
